# Data as given in the supplement of paper PMC9170038.
# Test system: MS2 coat protein
# Assay: apparent KD of MS2 coat protein; higher = weaker reporter binding
# Conditions: Eterna round: R107
# Procedure: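 RNA-MaP round R107: designed RNA switches with theophylline, tryptophan, arginine or FMN aptamers are transcribed on-chip within common flanks. They are titrated with SNAP-549-labelled MS2 coat protein in RNA-MaP buffer (100 mM Tris pH 7.5, 80 mM KCl, 4 mM MgCl2), without ligand or with the indicated ligand. Median apparent KD per design.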
# [1] = input ligand: theophylline 20 uM
# [2] = input ligand: theophylline 2 mM
# [3] = input ligand: tryptophan 2.4 mM
Sequence,apparent KD of MS2 coat protein (input ligand: arginine 13.2 mM),apparent KD of MS2 coat protein [1],apparent KD of MS2 coat protein [2],apparent KD of MS2 coat protein [3],apparent KD of MS2 coat protein (input ligand: none)
UUAUAUACUACGGCCGCCACUGAACAUGAGGAUCACCCAUGUAAUGUUCAGAUUUUUUUUUUUUACAGGACCGGGUAGAAUUAAA [Tryptophan B 2],67.9 nM,127 nM,206 nM,–,–
AUACCUAUUGAGUCGUGUUUCUAUUCAGAUACCAGACUUUUCGUUGUCCCUUGGCAGCUGUUUUACAUGAGGAUCACCCAUGUUG [JR_ExcTheophyA_Sub006],14.6 nM,18.3 nM,–,15 nM,–
CGAAAGCUCCUUAUGUGCUUUCGACUGGAAGGAGCGAGCGAAAGCUCAGGUAGGUCGCCAGAAACAUGAGGAUCACCCAUGUAAU [(A)''-(M)'-(A)'(Arg1)-(Arg2)-(M1)-(M2)_Design9],29.8 nM,25.6 nM,27.2 nM,18.5 nM,18 nM
GCUGCUUUGGGAAGGAGCGCUGCGGUAUUGUGGCGGACAUGAGGAUCACCCAUGUGCCUGCAGCAGGUAGGUCGCUUAGGGCAGC [EAP NP+V+V2 #17],54 nM,92 nM,79.8 nM,58.4 nM,68.8 nM
UAAACUACACAUGAGGAUCACCCAUGUGGCCGAGGACCGGUACGGCCGCCACUCGUGUGUUAAUAAAAGAACUGCAAGGUUCUGU [Laorat],68.7 nM,419 nM,552 nM,–,–
CUACAUUUGUAGAAACCGGUCAACAAUAUUCGAGGACCGGUACGGCCGCCACUCGUAUAAUUUAAUACAUGAGGAUCACCCAUGU [Tryptophan A 4],14.8 nM,18.2 nM,17.1 nM,–,–
UCCACAUGAGGAUCACCCAUGUGCCAUGAUACCAGACAUGAAAAUGUCCCUUGGCAGCAUGAGUGAGGCAUCCGAAAGGAUGCCU [Chrlice],149 nM,260 nM,38.3 nM,409 nM,157 nM
CGCCUACAGGUGUACUAUUGUGGUGAAGAUACCAGAUAGCCCAAUAUCCCUUGGCAGCUUCAGACAUGAGGAUCACCCAUGUAUC [theeternabot_exclusion_MS2_Theo_A_30],17.8 nM,18.7 nM,–,15.5 nM,–
GAGCGCGUGGACUGGCGUGCUCCGCUCCGUCGAGGACCGGUACGGCCGCCACUCGACAUGAGGAUCACCCAUGUGCGCGCUCGCU [#1 Exclusion - Tryptophan A Attempt #23 (HarryS)],7.37 nM,177 nM,27.8 nM,19.8 nM,27 nM
CUCUGAGUGAGAAAUCACUCAGAGGCGGAUACCAGCGAGGUCCAUCGCCCUUGGCAGCCGAACAUGAGGAUCACCCAUGUCGGUA [#1 Same State - Theophylline A Attempt #21 (HarryS)],9.9 nM,14 nM,14.5 nM,9.34 nM,10.8 nM
GAUUUUACAAAAGUAAAAUCAGUGGGUGAACGAGGACCGGUACGGCCGCCACUCGGACAUGAGGAUCACCCAUGUCCAUGUGAAA [AstrosExyTryA#21],17.1 nM,18.4 nM,20.6 nM,61.9 nM,15.7 nM
AGACAUGAGGAUCACCCAUGUAGCAUGGAUACCAGAUGCAGAUUUAUCCCUUGGCAGCUGUGGUAAAGUGAUGCAUUGCUCCUAG [Exclusion - Theophylline A (Freestyle 6)],18.8 nM,31 nM,27.1 nM,23.8 nM,22.6 nM
AUACAUGAGGAUCACCCAUGUAUGGAUGAAGGAGCGACCAGAGGGUCAGGUAGGUCGCAUCACAUGAGGAUCACCCAUGUAGAAA [DOUBLE!!! :-D #11],20.3 nM,25.2 nM,26.1 nM,24 nM,23.4 nM
CGGUUUGUGAUGGAUACCAGCAGAGAAAAUGUUUAUCCUAACAUGAGGAUCACCCAUGUAUGCCCUUGGCAGCUGUUGUGGGCUG [8.V],43.3 nM,80.4 nM,–,52.5 nM,–
UUCAGCUAGUCGGCCGCCACUACCUGAGGAUCACCCUGGUAGGUCCACACUGCUUCGGCAGUGAGUAGGACCGGGACUAGCUGAG,18.3 nM,25.2 nM,19 nM,52.7 nM,23.2 nM
GUCGUGGUCGGAAGGAGCGACAUGAGGAUCACCCAUGUCUCCCGUUAUGGGAGUUCCUUAGGUCAGGUAGGUCGCCGACUGCGGC [#1 Exclusion - Arginine B Attempt #23 (Inspired by Omei)],54.7 nM,170 nM,276 nM,181 nM,199 nM
ACAUGAGGAUCACCCAUGUUUGUUGUUCCUCGAGGACCGGUACGGCCGCCACUCGAACGAGUGGCGCGCGAGUGCGCACUCGCGC [aOa],12.7 nM,18 nM,13.4 nM,11.7 nM,11.9 nM
ACUAGUUGUGCAGAUACCAGAUAUGAGGAUCACCCAUAUUUGGGAUGUUCGCAUCUUCCUGUCCCUUGGCAGCUGUACAUCUAGA [Omei Theo B Exc v7],37.9 nM,86.7 nM,107 nM,33.9 nM,37.3 nM
